# Legend:
# [1] = biological target: HPV16 E6 (human papillomavirus type 16 (HPV16)) (UniProt P03126); experiment: cell-based or functional assay
# [2] = biological target: MDM2 (UniProt Q00987); experiment: cell-based or functional assay
# Chain of MDM2 (Q00987 whole entry): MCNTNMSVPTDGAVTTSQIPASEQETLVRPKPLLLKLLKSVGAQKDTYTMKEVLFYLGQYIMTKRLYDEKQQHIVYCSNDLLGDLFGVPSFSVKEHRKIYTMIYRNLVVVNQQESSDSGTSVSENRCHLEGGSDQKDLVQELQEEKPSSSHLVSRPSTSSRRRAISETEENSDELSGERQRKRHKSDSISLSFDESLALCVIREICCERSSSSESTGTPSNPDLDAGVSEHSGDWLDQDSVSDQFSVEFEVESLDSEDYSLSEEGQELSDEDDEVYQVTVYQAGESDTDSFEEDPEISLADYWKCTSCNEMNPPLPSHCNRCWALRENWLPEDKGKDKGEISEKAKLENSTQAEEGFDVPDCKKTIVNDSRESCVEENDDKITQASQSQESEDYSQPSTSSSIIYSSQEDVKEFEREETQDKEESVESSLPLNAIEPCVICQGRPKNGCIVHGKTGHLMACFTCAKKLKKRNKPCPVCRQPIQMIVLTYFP
# Chain of exogenous CH1 domain of p300 (pcDNA3.1/CH1) (Q09472 whole entry, the tested form may be a part): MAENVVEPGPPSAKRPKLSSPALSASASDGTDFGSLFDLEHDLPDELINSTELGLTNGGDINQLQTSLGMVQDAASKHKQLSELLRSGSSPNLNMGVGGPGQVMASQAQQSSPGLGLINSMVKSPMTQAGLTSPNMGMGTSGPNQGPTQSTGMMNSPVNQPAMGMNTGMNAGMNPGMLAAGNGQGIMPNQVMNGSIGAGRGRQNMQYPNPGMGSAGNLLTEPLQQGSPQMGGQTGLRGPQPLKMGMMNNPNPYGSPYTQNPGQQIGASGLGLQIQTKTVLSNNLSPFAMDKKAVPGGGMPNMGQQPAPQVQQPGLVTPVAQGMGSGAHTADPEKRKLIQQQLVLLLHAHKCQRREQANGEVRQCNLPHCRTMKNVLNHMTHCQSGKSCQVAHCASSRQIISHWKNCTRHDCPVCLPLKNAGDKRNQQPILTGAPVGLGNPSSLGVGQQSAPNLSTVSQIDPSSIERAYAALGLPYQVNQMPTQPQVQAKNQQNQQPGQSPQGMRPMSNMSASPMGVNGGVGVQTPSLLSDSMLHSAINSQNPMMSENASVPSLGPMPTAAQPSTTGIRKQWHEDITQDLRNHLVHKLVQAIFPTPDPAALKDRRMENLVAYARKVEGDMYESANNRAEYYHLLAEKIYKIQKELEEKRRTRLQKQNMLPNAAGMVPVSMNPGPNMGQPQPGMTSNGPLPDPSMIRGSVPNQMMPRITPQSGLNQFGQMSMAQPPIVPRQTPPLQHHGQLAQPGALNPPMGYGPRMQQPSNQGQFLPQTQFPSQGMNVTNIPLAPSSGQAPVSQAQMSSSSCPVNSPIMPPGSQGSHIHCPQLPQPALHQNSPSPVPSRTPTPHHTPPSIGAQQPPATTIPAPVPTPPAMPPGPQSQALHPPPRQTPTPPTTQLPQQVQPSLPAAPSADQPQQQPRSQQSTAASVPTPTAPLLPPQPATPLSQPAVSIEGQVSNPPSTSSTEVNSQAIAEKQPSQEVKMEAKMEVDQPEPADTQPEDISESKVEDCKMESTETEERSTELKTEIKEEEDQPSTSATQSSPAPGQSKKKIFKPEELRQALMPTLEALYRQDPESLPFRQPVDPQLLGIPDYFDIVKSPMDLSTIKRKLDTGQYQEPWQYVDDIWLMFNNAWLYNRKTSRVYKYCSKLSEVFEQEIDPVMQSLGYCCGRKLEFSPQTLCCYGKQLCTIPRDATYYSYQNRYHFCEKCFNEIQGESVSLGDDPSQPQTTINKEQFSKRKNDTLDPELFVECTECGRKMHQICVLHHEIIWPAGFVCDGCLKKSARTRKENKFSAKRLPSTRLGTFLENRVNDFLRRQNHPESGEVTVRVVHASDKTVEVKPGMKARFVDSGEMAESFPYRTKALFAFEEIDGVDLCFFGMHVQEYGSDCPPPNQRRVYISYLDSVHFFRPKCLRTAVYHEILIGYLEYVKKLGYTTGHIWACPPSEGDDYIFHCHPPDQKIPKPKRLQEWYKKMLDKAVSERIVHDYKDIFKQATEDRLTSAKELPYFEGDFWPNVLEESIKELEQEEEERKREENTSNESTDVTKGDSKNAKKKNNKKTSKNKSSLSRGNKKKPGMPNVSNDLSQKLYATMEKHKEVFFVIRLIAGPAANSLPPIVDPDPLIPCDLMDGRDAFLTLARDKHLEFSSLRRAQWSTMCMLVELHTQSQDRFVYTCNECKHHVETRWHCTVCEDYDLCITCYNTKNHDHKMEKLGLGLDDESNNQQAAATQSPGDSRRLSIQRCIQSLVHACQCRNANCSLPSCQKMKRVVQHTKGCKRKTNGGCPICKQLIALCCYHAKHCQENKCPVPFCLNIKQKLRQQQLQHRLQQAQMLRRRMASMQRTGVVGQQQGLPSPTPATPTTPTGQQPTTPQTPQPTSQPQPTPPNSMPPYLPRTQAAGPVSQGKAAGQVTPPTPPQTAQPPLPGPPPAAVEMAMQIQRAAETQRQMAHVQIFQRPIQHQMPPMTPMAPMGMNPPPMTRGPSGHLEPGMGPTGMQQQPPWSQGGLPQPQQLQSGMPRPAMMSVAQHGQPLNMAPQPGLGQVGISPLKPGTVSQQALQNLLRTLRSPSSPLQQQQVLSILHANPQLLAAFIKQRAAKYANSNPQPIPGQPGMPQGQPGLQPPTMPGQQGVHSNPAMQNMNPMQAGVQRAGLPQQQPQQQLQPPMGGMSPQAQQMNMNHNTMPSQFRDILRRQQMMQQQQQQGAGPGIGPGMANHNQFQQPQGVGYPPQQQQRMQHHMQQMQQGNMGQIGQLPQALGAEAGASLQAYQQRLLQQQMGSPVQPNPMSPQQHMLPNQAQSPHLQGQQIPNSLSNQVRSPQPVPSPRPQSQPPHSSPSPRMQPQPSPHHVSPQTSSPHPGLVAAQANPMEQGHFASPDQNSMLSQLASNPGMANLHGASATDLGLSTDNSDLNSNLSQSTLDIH
# Chain of HPV16 E6 (human papillomavirus type 16 (HPV16)) (P03126 whole entry): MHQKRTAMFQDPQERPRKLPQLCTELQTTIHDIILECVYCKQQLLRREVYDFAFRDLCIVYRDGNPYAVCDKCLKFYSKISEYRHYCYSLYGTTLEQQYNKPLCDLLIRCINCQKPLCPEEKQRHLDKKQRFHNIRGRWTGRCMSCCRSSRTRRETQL
substance,measurement,setting,value
exogenous CH1 domain of p300 (pcDNA3.1/CH1) (from UniProt Q09472 332-417),"p53 transcription activity (luciferase reporter), UMSCC47/CH1 cells",[1],85%
same,"p53 transcription activity (luciferase reporter), UPCI:SCC090/CH1 cells",[1],50%
same,"p53 transcription activity (luciferase reporter), UMSCC74A/CH1 compared to UMSCC74A/empty cells",[2],68%
